Publication PMC6536497

What was measured:
[1] = molecular target: LGTV NS2B/3pro_D19A_E117A (Langat virus) (UniProt P29837); assay: pull-down
[2] = molecular target: LGTV NS2B/3pro_E117A (Langat virus) (UniProt P29837); assay: pull-down

“GFP-tagged TRAF6 (TRAF6-GFP) (from UniProt Q9Y4K3 1-522) (natural protein)” gave a percent decrease in pull down of TRAF6 relative to NS2B/3pro WT (densitometry) [1] of 58.6% and a percent decrease in pull down of TRAF6 relative to NS2B/3pro WT (densitometry) [2] of 56.1%.
